Among the data in patent US20250250357A1 (NANJING ZAIMING PHARMACEUTICAL, published 2025) are OD450 values, retold here.

For test [1], the target named is T1, human MSLN-R3-his protein (human, UniProt Q13421 487-598).
T1 construct: Self-made in HEK293E cells; also called human MSLN-R3 protein; hMSLN-R3-his; not shown: His tag
The experiment in a line: ELISA on coated antigen, antibody 100 nM. For orientation: An ELISA detects its analyte on a solid surface through an enzyme-linked reagent.

For test [2], the target named is T1, human MSLN-R3-his protein. The experiment in a line: ELISA on coated antigen, no antibody (column none).
Procedure: (§1) The plate was sealed with a plastic film and incubated at 4° C. overnight. The next day, the plate was washed twice with PBST, and a blocking buffer [PBS+2% (w/w) BSA] was added for blocking at room temperature for 2 h. The blocking buffer was discarded, and a chimeric antibody or negative control antibody serially diluted from 100 nM was added at 50 μL/well. After incubation at 37° C. for 2 h, the plate was washed 3 times with PBST. […] After incubation at 37° C. for 2 h, the plate was washed 5 times with PBST. A TMB substrate was added at 50 μL/well for incubation at room temperature for 5-10 min, and then a stop solution (1.0 N HCl) was added at 50 μL/well.
The target of test [3] is T2, human MSLN-R2-his protein (human, UniProt Q13421 391-486).
T2 construct: Self-made in HEK293E cells; also called human MSLN-R2 protein; hMSLN-R2-his; not shown: His tag
Briefly: ELISA on coated antigen, antibody 1 nM.

For test [4], the target named is T2, human MSLN-R2-his protein. The experiment in a line: ELISA on coated antigen, antibody 0.001 nM.
Procedure: as §1
In test [5] the target is T3, human MSLN-R3-3 polypeptide (human).
T3 construct: also called human MSLN-R3-3 protein; hMSLN-R3-3
Briefly: ELISA on coated antigen, antibody 1 nM.
Procedure: as §1

For test [6], the target named is T3, human MSLN-R3-3 polypeptide. The experiment in a line: ELISA on coated antigen, antibody 0.001 nM.
Procedure: as §1
The target in test [7] is T1, human MSLN-R3-his protein. The experiment in a line: ELISA on coated antigen, antibody 0.1 nM.
Procedure: as §1
Test [8] addresses T1, human MSLN-R3-his protein. Briefly: ELISA on coated antigen, antibody 0.01 nM.
Procedure: as §1
Test [9] has as its target T3, human MSLN-R3-3 polypeptide. The experiment in a line: ELISA on coated antigen, antibody 100 nM.
Procedure: as §1
In test [10] the target is T2, human MSLN-R2-his protein. The experiment in a line: ELISA on coated antigen, antibody 0.0001 nM.
Procedure: as §1
For test [11], the target named is T1, human MSLN-R3-his protein. The experiment in a line: ELISA on coated antigen, antibody 0.0001 nM.
Procedure: as §1
In test [12] the target is T2, human MSLN-R2-his protein. The experiment in a line: ELISA on coated antigen, antibody 0.1 nM.
Procedure: as §1
Test [13] has as its target T2, human MSLN-R2-his protein. The experiment in a line: ELISA on coated antigen, antibody 100 nM.
Procedure: as §1
In test [14] the target is T3, human MSLN-R3-3 polypeptide. The experiment in a line: ELISA on coated antigen, antibody 0.0001 nM.
Procedure: as §1
Test [15] concerns the target T2, human MSLN-R2-his protein. Briefly: ELISA on coated antigen, antibody 10 nM.
Procedure: as §1
Test [16] addresses T1, human MSLN-R3-his protein. Briefly: ELISA on coated antigen, antibody 10 nM.
Procedure: as §1
The target in test [17] is T1, human MSLN-R3-his protein. The experiment in a line: ELISA on coated antigen, antibody 1 nM.
Procedure: as §1
Test [18] addresses T3, human MSLN-R3-3 polypeptide. Briefly: ELISA on coated antigen, antibody 0.1 nM.
Procedure: as §1
Test [19] has as its target T2, human MSLN-R2-his protein. Briefly: ELISA on coated antigen, no antibody (column none).
Procedure: as §1
Test [20] deals with T3, human MSLN-R3-3 polypeptide. The experiment in a line: ELISA on coated antigen, antibody 0.01 nM.
Procedure: as §1
Test [21] deals with T1, human MSLN-R3-his protein. The experiment in a line: ELISA on coated antigen, antibody 0.001 nM.
Procedure: as §1
In test [22] the target is T3, human MSLN-R3-3 polypeptide. The experiment in a line: ELISA on coated antigen, no antibody (column none).
Procedure: as §1
Test [23] has as its target T2, human MSLN-R2-his protein. The experiment in a line: ELISA on coated antigen, antibody 0.01 nM.
Procedure: as §1
The target in test [24] is T3, human MSLN-R3-3 polypeptide. The experiment in a line: ELISA on coated antigen, antibody 10 nM.
Procedure: as §1

T2 sequence (Q13421 other isoform, or with tags, fused parts or gaps): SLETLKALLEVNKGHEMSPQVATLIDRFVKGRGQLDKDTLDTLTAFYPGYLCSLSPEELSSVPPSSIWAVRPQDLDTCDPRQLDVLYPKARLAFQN
T1 sequence (Q13421 495-606): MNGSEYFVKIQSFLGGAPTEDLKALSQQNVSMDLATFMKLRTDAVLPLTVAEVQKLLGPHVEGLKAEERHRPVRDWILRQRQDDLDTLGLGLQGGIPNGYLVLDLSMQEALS

B1: S009-F2.23.12 (antibody, human IgG1, kappa, V domains shown)
VH: QVQLQQPGTELVKPGASVKLSCKASGYTFTNYWMHWVKQRPGQGLEWIGNINPSNGGPYYNERFRSKATLTVDKSSSTAYMQLSSLTSEDSAVYYCARPYYGSSYGYFDYWGQGTTLTVSS
VL: DIQMTQSPSSLSASLGGKVTITCKASQDINKYIAWYQHKPGKGPRLLIHYTSELQPGIPSRFSGNGSGRDYSFSISNLEPEDIATYYCLQYANPLRTFGGGTKLEIKR
notes: Human-murine chimeric antibody: murine VH/VL on human IgG1 heavy and kappa light constant regions
Regarding B1, the OD450 is 2.08 OD450 in [1]; 0.06 OD450 in [2]; 0.05 OD450 in [3]; 0.05 OD450 in test [4]; 0.05 OD450 in test [5]; 0.05 OD450 in [6]. In addition, the OD450 was found to be 0.09 OD450 in [7]; 0.05 OD450 in test [8]; 0.06 OD450 in test [9]; 0.05 OD450 in [10]; 0.05 OD450 in test [11]; 0.05 OD450 in test [12]. For the same molecule, the OD450 in test [13] was found to be 0.06 OD450; in test [14], 0.05 OD450; in test [15], 0.05 OD450; in test [16] it was 1.4 OD450; in [17], 0.3 OD450; in test [18], 0.05 OD450. Moreover, the OD450 in test [19] came out at 0.06 OD450; in test [20] it was 0.05 OD450; in test [21], 0.05 OD450; in [22] it was 0.05 OD450; in test [23] it was 0.05 OD450; in test [24] it was 0.05 OD450.

B2: S009-F2.21.4 (antibody, human IgG1, kappa, V domains shown)
VH: EVQLQQSGPELVKPGASVKIPCKASGYTFTDYNMDWVKQSHGKSLEWIGDINPNNGGSIYNQRFKGKATLTVDKSSSTAYMELRSLTSEDSAVYYCARRAYYSTGYFDVWGTGTTVTVSS
VL: QIVLTQSPALMSASPGEKVTITCSASSSISYMHWFQQKPGTSPKLWIYSTSTLASGVPARFSGSGSGTSYSLTISRMEAEDTATYYCQQRSSYPPTFGGGTKLEIKR
notes: as for B1
As to B2, the OD450 came out at 0.06 OD450 in test [1]; 0.06 OD450 in [2]; 0.05 OD450 in test [3]; 0.05 OD450 in test [4]; 0.05 OD450 in [5]; 0.05 OD450 in [6]. Besides, the OD450 in test [7], in test [8], in test [9], in test [10], in test [11] and in test [12] was 0.05 OD450 each time. The OD450 stood at 0.06 OD450 in test [13]; 0.05 OD450 in test [14]; 0.05 OD450 in test [15]; 0.05 OD450 in [16]; 0.05 OD450 in test [17]; 0.05 OD450 in [18]. The OD450 in test [19] turned out to be 0.06 OD450; in test [20], 0.05 OD450; in test [21] it was 0.05 OD450; in test [22] it was 0.05 OD450; in test [23], 0.05 OD450; in test [24] it was 0.05 OD450.

B3: S009-F2.17.3 (antibody, human IgG1, kappa, V domains shown)
VH: QVQLQQPGTELVTPGASVKLSCKASGYSFTSYWMHWVKQRPGQGLEWIGNINPSNGDTFYNEKFKNKATLTVDKSSSTAYMQLSSLTSEDSAVYYCARGWLRDYWGQGTTLTVSS
VL: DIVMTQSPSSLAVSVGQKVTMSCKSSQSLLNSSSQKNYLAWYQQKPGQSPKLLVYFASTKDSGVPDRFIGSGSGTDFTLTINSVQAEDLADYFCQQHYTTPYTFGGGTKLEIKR
notes: as for B1
For the molecule B3, the OD450 in test [1] amounted to 2.3 OD450; in [2], 0.06 OD450; in [3], 0.05 OD450; in test [4], 0.05 OD450; in test [5], 0.05 OD450; in test [6], 0.05 OD450. The OD450 was determined as 0.07 OD450 in test [7]; 0.05 OD450 in test [8]; 0.05 OD450 in test [9]; 0.05 OD450 in [10]; 0.05 OD450 in test [11]; 0.05 OD450 in test [12]. The OD450 in test [13] is 0.06 OD450; in test [14] it was 0.05 OD450; in test [15], 0.05 OD450; in [16], 1.19 OD450; in test [17], 0.29 OD450; in test [18], 0.05 OD450. For the same molecule, the OD450 in test [19] came to 0.06 OD450; in test [20], 0.05 OD450; in [21], 0.05 OD450; in test [22], 0.05 OD450; in test [23], 0.05 OD450; in test [24], 0.05 OD450.

B4: S009-F2.13.3 (antibody, human IgG1, kappa, V domains shown)
VH: QVQLQQSGAELMKPGASVKLSCKATGYTFTGYWIEWVKQRPGHGLEWIGEILPGSGSTNYNEKFKGKATFTADTSSNTAYMQLSSLTTEDSAIYYCARAGAWFAYWGQGTLVTVSA
VL: QIVLTQSPAIMSASLGERVTMTCTASSSVSSSYLHWYQQKPGSSPKLWTYSTSNLASGVPARFSGSGSGTSYSLTISSMEAEDAATYYCHQYHRSPWTFGGGTKLEIKR
notes: as for B1
B4: the OD450 in [1] was 0.06 OD450; in [2], 0.06 OD450; in test [3], 0.05 OD450; in test [4] it was 0.05 OD450; in test [5] it was 0.05 OD450; in test [6] it was 0.05 OD450. Moreover, the OD450 in test [7] was found to be 0.05 OD450; in [8], 0.05 OD450; in test [9] it was 0.06 OD450; in [10], 0.06 OD450; in [11], 0.05 OD450; in test [12] it was 0.05 OD450. Also, the OD450 in [13] was 0.07 OD450; in test [14] it was 0.05 OD450; in test [15], 0.06 OD450; in test [16], 0.06 OD450; in test [17], 0.05 OD450; in test [18] it was 0.05 OD450. In addition, the OD450 in test [19] was 0.06 OD450; in [20], 0.05 OD450; in test [21], 0.06 OD450; in test [22], 0.05 OD450; in test [23], 0.05 OD450; in test [24], 0.07 OD450.

B5: S009-F2.16.10 (antibody, human IgG1, kappa, V domains shown)
VH: QVQLQQPGAELIKPGASVKLSCKASGYTFTSYWMHWVKQRPGQGLEWIGIIHPNIGSTNYNERFKSKATLTVDKSSSTAYMQLSSLTSEDSAVYYCARRSSNYGDWYFDVWGTGTTVTVSS
VL: DIVMTQSHRFMSTSVGDRVSITCKASQDVGTSVAWYQQKPGQSPKLLIYWASTQHTGVPDRFTGSGSGTDFTLTINNVQSEDLLDYFCQQYSSYPLTFGAGTKLELKR
notes: as for B1
As for B5, the OD450 in test [1] is 0.06 OD450; in test [2], 0.06 OD450; in test [3] it was 0.05 OD450; in test [4], 0.05 OD450; in [5] it was 0.05 OD450; in [6], 0.05 OD450. In addition, the OD450 in [7], in test [8], in test [9], in test [10], in test [11] and in test [12] was 0.05 OD450 in each case. The OD450 in [13], in test [14], in test [15], in test [16], in test [17] and in [18] was 0.05 OD450 each time. The OD450 in [19] is 0.06 OD450; in test [20], 0.05 OD450; in test [21] it was 0.05 OD450; in [22], 0.05 OD450; in test [23], 0.05 OD450; in test [24], 0.05 OD450.
